Common to all, as to experiment: cell-based or functional assay
The target of assay [1] is aMLV envelope (pseudovirus, negative control).
In assay [2] the target is HIV-1 Env of isolate MGRM-F1-008 (pseudovirus) (HIV-1).
The target of assay [3] is HIV-1 Env of isolate MGRM-D-020 (pseudovirus) (HIV-1).
The target of assay [4] is HIV-1 Env of isolate MGRM-AE-005 (HIV-1).
The target in assay [5] is HIV-1 Env of isolate 98CN006 (pseudovirus) (HIV-1).
Assay [6] deals with HIV-1 Env of pseudovirus isolate MGRM-G-028 (HIV-1).
The target of assay [7] is HIV-1 Env of isolate APV_13 (subtype B pseudovirus) (HIV-1).
In assay [8] the target is HIV-1 Env of isolate 97ZA012 (HIV-1).
The target of assay [9] is HIV-1 JRFL Env (pseudovirus, clade B) (HIV-1).
Assay [10] concerns the target HIV-1 Env of isolate MGRM-F1-017 (HIV-1).
In assay [11] the target is HIV-1 Env of isolate MGRM-Chronic-B-024 (subtype B pseudovirus) (HIV-1).
Assay [12] deals with HIV-1 JRFL Env (pseudovirus) (HIV-1).
Assay [13] has as its target HIV-1 Env of isolate MGRM-AG-005 (clade AG), on pseudovirus (HIV-1).
For assay [14], the target named is HIV-1 Env of isolate MGRM-D-011 (pseudovirus) (HIV-1).
The target of assay [15] is HIV-1 Env of isolate MGRM-D-005 (pseudovirus) (HIV-1).
The target of assay [16] is HIV-1 Env of isolate MGRM-Chronic-B-008 (subtype B pseudovirus) (HIV-1).
Assay [17] has as its target HIV-1 Env of isolate MGRM-D-018 (pseudovirus) (HIV-1).
The target in assay [18] is HIV-1 Env of isolate MGRM-AE-006 (HIV-1).
Assay [19] addresses HIV-1 Env of isolate MGRM-D-028 (pseudovirus) (HIV-1).

Some results are limits rather than exact numbers.

In general, IC50 refers to the concentration that inhibits the measured activity by half. Read a low IC50 as greater potency.

As to 4858_P08 (PGT-123) (antibody), the results for the neutralization IC50 (pseudovirus) in [1] and in assay [12] were more than 10 µg/mL and 0.0283 µg/mL, respectively. Also, the IC50, pseudovirus neutralization in [2] is more than 50 µg/mL; in assay [3] it was 0.018 µg/mL; in [5], 0.008 µg/mL; in assay [13] it was 0.104 µg/mL; in assay [14] it was 0.012 µg/mL; in assay [15], more than 50 µg/mL. The values for the IC50, pseudovirus neutralization in assay [17] and in [19] were 0.007 µg/mL and 0.132 µg/mL, respectively. The IC50 in assay [4] and in assay [18] was more than 50 µg/mL throughout. Moreover, the IC50 (µg/mL), pseudovirus neutralization is 0.008 µg/mL in [6]; 0.138 µg/mL in [7]; more than 50 µg/mL in [10]; more than 50 µg/mL in assay [11]; 0.01 µg/mL in [16]. The neutralization IC50 in [8] worked out at 0.002 µg/mL. In assay [9], this substance showed an IC50 neutralization of 0.0283 µg/mL.
For the substance 5145_B14 (PGT-127) (antibody), the IC50, pseudovirus neutralization was more than 50 µg/mL in [2]; 0.015 µg/mL in assay [3]; 0.067 µg/mL in assay [5]; 0.015 µg/mL in assay [14]; 6.02 µg/mL in assay [15]; 0.021 µg/mL in assay [17]. The IC50, pseudovirus neutralization in assay [19] was more than 50 µg/mL. Besides, the IC50 in assay [4] and in assay [18] was more than 50 µg/mL in each case. Also, the IC50 (µg/mL), pseudovirus neutralization in [6] was 0.032 µg/mL; in assay [7] it was 0.026 µg/mL; in assay [10] it was more than 50 µg/mL; in assay [11] it was more than 50 µg/mL; in [16], 21.5 µg/mL. The neutralization IC50 in assay [8] was more than 50 µg/mL.
For the substance 5123_A06 (PGT-125) (antibody), the figures for the neutralization IC50 (pseudovirus) in [1] and in assay [12] were more than 10 µg/mL and 0.0156 µg/mL, respectively. Further, the IC50, pseudovirus neutralization in assay [2] was 0.361 µg/mL; in [3] it was more than 50 µg/mL; in assay [5], 0.201 µg/mL; in assay [13] it was more than 10 µg/mL; in assay [14], 0.008 µg/mL; in assay [15], more than 50 µg/mL. Besides, the IC50, pseudovirus neutralization in assay [17] and in [19] was more than 50 µg/mL in each case. The figures for the IC50 in assay [4] and in assay [18] were 0.01 µg/mL and 0.009 µg/mL, respectively. The IC50 (µg/mL), pseudovirus neutralization in assay [6] was 0.012 µg/mL; in assay [7] it was 0.007 µg/mL; in [10], more than 50 µg/mL; in assay [11], more than 50 µg/mL; in assay [16] it was more than 50 µg/mL. Moreover, the neutralization IC50 in assay [8] was determined as 2.46 µg/mL. The substance also registered an IC50 neutralization in assay [9] of 0.0156 µg/mL.
With 5141_B17 (PGT-126) (antibody), the values for the neutralization IC50 (pseudovirus) in assay [1] and in assay [12] were more than 10 µg/mL and 0.014 µg/mL, respectively. Besides, the IC50, pseudovirus neutralization in assay [2] is more than 50 µg/mL; in assay [3], 0.023 µg/mL; in assay [5], 0.046 µg/mL; in [13] it was 1.35 µg/mL; in assay [14], 0.009 µg/mL; in [15], 0.792 µg/mL. In addition, the IC50, pseudovirus neutralization is 0.009 µg/mL in [17] and more than 50 µg/mL in assay [19]. Further, the IC50 came out at 0.324 µg/mL in assay [4] and 17.3 µg/mL in assay [18]. The IC50 (µg/mL), pseudovirus neutralization in assay [6] was 0.012 µg/mL; in assay [7] it was 0.012 µg/mL; in [10], more than 50 µg/mL; in assay [11] it was more than 50 µg/mL; in assay [16], 5.89 µg/mL. Moreover, the neutralization IC50 in assay [8] is 0.042 µg/mL. For the same substance, in assay [9], the IC50 neutralization worked out at 0.014 µg/mL.
Regarding 4838_L06 (PGT-121) (antibody), the neutralization IC50 (pseudovirus) in assay [1] is more than 10 µg/mL. Moreover, the IC50, pseudovirus neutralization in assay [2] is more than 50 µg/mL; in assay [3], 0.01 µg/mL; in [5], 0.01 µg/mL; in [14], 0.018 µg/mL; in assay [15], more than 50 µg/mL; in assay [17], 0.005 µg/mL. The substance also gave an IC50, pseudovirus neutralization in [19] of 0.009 µg/mL. In addition, the IC50 in assay [4] and in assay [18] was more than 50 µg/mL in each case. Moreover, the IC50 (µg/mL), pseudovirus neutralization turned out to be 0.251 µg/mL in assay [7], 16.9 µg/mL in assay [10], 0.195 µg/mL in [11] and 0.007 µg/mL in [16]. The same substance yielded a neutralization IC50 in [8] of 0.002 µg/mL.
For the substance 4877_D15 (PGT-122) (antibody), the neutralization IC50 (pseudovirus) in [1] was more than 10 µg/mL; in [12], 0.0471 µg/mL. In addition, the IC50, pseudovirus neutralization in [2] was more than 50 µg/mL; in assay [3], 0.007 µg/mL; in [5], 0.021 µg/mL; in assay [13], more than 10 µg/mL; in assay [14] it was 0.019 µg/mL; in [15] it was more than 50 µg/mL. The IC50, pseudovirus neutralization in [17] came to 0.007 µg/mL; in [19] it was 3.34 µg/mL. In addition, the IC50 in assay [4] and in assay [18] was more than 50 µg/mL each time. For the same substance, the IC50 (µg/mL), pseudovirus neutralization was 0.01 µg/mL in assay [6]; 0.778 µg/mL in assay [7]; more than 50 µg/mL in [10]; 2.31 µg/mL in [11]; 0.017 µg/mL in [16]. In assay [8], this substance returned a neutralization IC50 of 0.004 µg/mL. In [9], this substance yielded an IC50 neutralization of 0.0471 µg/mL.

The values above are taken from patent US20250320281A1.
